Assay results as given in article PMC3273809.
Read-outs that look alike come from different tables or passages of the source.

Columns and labels:
Assay in all cases: SPR
TrfA G254D/S267L = target: T1, TrfA G254D/S267L (plasmid RK2, UniProt P07676 98-382, G254D;S267L)
T1 sequence: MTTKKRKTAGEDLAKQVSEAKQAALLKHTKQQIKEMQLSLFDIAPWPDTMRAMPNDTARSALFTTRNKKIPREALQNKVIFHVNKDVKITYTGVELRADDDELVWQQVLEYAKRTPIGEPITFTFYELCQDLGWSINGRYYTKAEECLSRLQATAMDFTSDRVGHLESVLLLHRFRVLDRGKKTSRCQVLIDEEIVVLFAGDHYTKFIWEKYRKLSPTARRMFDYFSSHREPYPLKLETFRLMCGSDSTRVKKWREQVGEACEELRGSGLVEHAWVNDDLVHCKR

Lon [1] = target: T2, Lon (Escherichia coli, UniProt P0A9M0 1-784)
ClpA = target: T3, ClpA (Escherichia coli, UniProt P0ABH9 1-758)
T3 sequence: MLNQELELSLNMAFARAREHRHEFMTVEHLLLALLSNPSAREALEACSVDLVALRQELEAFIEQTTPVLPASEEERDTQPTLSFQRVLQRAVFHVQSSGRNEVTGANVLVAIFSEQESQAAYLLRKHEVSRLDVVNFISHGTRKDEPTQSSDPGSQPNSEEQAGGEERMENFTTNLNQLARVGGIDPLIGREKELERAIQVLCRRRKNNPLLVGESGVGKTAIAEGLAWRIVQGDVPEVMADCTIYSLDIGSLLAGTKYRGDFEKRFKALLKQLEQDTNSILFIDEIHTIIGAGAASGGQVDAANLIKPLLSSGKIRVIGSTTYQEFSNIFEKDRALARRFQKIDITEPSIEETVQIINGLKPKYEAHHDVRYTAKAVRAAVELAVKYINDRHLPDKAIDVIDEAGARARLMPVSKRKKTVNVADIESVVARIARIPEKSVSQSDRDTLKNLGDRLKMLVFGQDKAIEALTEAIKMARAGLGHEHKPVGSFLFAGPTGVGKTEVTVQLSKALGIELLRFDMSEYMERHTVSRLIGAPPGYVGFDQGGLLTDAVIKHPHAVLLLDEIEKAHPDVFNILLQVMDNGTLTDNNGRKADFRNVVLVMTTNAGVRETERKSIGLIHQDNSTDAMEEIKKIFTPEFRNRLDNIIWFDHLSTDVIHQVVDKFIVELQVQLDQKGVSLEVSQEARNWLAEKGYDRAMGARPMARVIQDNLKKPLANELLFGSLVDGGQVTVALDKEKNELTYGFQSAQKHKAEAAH

TrfA wt (His6-TrfA-33) = target: T4, TrfA wt (His6-TrfA-33) (plasmid RK2, UniProt P07676 98-382)
T4 sequence: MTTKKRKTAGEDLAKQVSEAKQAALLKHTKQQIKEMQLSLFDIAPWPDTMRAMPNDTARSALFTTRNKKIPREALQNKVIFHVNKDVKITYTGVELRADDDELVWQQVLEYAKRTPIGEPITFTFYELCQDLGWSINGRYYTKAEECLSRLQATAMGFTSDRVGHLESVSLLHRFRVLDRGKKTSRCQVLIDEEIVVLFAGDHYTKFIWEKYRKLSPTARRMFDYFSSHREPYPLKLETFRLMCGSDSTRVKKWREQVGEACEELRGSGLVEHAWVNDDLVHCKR

[2] = target: Lon;TrfA P151S/G254D/S267L (Escherichia coli;plasmid RK2, UniProt P0A9M0;P07676 1-784;98-382, |P151S;G254D;S267L)
Lon [3] = target: T2, Lon; remark: listed apart in the source

Measured: binding result

B1: frag1 (five RK2 oriV iterons, 129 bp) (dsDNA)
DNA 1: CCTGCGGTATTGACACTTGAGGGGCGCGACTACTGACAGATGAGGGGCGCGATCCTTGACACTTGAGGGGCAGAGTGATGACAGATGAGGGGCGCACCTATTGACATTTGAGGGGCTGTCCACAGGCAG
DNA 2: CTGCCTGTGGACAGCCCCTCAAATGTCAATAGGTGCGCCCCTCATCTGTCATCACTCTGCCCCTCAAGTGTCAAGGATCGCGCCCCTCATCTGTCAGTAGTCGCGCCCCTCAAGTGTCAATACCGCAGG
binds: TrfA G254D/S267L | Lon [1] | ClpA | TrfA wt (His6-TrfA-33)

B2: frag2 (pUC19 fragment, 129 bp) (dsDNA)
DNA 1: AGCTCACAATTCCACACAACATACGAGCCGGAAGCATAAAGTGTAAAGCCTGGGGTGCCTAATGAGTGAGCTAACTCACATTAATTGCGTTGCGCTCACTGCCCGCTTTCCAGTCGGGAAACCTGTCGT
DNA 2: ACGACAGGTTTCCCGACTGGAAAGCGGGCAGTGAGCGCAACGCAATTAATGTGAGTTAGCTCACTCATTAGGCACCCCAGGCTTTACACTTTATGCTTCCGGCTCGTATGTTGTGTGGAATTGTGAGCT
binds: [2] | ClpA | Lon [3]
